Test results: patent publication US20220204611A1 (Amgen, published 2022)

T1: recombinant soluble human TREM2 protein (human TREM2 ECD-FlagHis) (human, UniProt Q9NZC2 19-174)
T1 sequence: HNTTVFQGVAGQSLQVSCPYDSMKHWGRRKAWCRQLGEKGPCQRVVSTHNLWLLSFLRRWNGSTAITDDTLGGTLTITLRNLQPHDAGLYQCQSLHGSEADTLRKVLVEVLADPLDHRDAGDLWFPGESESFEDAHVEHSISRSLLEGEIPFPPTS

T2: soluble human TREM2 protein (TREM2 ECD-huIgG1 Fc fusion protein) (human, UniProt Q9NZC2 19-174, biotinylated)
T2 construct: also called biotinylated soluble human TREM2 protein
T2 sequence: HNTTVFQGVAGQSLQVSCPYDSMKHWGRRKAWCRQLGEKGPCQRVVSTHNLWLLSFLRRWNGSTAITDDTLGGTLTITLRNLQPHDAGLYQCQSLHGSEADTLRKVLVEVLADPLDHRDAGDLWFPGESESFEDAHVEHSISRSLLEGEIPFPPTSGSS

T3: human TREM2 on cells (human, UniProt Q9NZC2 19-230)
T3 sequence: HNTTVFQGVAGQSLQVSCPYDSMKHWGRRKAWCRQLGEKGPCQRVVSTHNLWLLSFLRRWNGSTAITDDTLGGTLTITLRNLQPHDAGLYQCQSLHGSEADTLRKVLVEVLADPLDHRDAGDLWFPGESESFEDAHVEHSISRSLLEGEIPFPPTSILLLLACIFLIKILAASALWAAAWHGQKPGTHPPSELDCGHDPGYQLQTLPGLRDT

B1: 16B8 (antibody, human IgG4, V domains shown)
VH: QVQLVQSGAEVKKPGASVKVSCKASGYTFTNYGISWVRQAPGQGLEWMGWISAYNGNTNYAQKLQGRVTMTTDTSTSTVYMELRSLRSDDTAVYYCARRGYSYGSFDYWGQGTLVTVSS
VL: DIQMTQSPSSVSASVGDRVTVTCRASQDINSWLAWYQQKPGKAPKLLIYAASSLQTGVPSRFSGSGSGTDFTLTISSLQPEDFATYSCQQSNSFPITFGQGTRLEIK
notes: human IgG4 (G4) from hybridoma
B2: 25F12 (antibody, human IgG2, V domains shown)
VH: QVQLQQWGAGLLKPSETLSLTCAVYGGSFSSYYWSWIRQPPGKGLEWIGEINHSGNTNYNPSLKSRVTISVDTSKNQFSLKLSSVTAADTAVYYCAREGYYDILTGYHDAFDIWDQGTMVTVFS
VL: not shown
notes: human IgG2 from hybridoma
B3: 26A10 (antibody, V domains shown)
VH: EVQLVESGGALVQRGGSLRLSCAASRFTFSSFGMSWVRQAPGKGLEWVSYISSSSFTIYYADSVKGRFTISRDNAKNSFYLQMNSLRDEDTAVYYCAREGGLTMVRGVSSYGLDVWGQGTTVTVSS
VL: not shown
notes: human IgG2 from hybridoma
B4: 24A10 (antibody, human IgG2, V domains shown)
VH: EVQVLESGGGLVQPGGSLRLSCAASGFTFSNYAMSWVRQAPGKGLEWVSAISGSGGSTYYADSVKGRFTISRDNSKNTLYLQMNSLRAEDTAVYYCAKGGWELFYWGQGTLVTVSS
VL: not shown
notes: human IgG2 from hybridoma

target: T1, recombinant soluble human TREM2 protein …; assay: Octet BLI binning; competitor: load Ab 32E3
Method: (§1) Each of sixteen different anti-TREM2 antibodies produced from hybridomas were quantitated and loaded onto one of the anti-human Fc sensors at 5 μg/mL for 2 minutes (“Load Antibody”). The sensor was then blocked with 100 μg/mL of an irrelevant human IgG2 antibody for 5 minutes. […] Next, each of the sixteen different anti-TREM2 antibodies (“Sandwich Antibody”) was added to the sensor at 5 μg/mL and allowed to bind for 5 minutes. All assay buffers contained 10 mM Tris (pH 7.6), 0.1% Triton X-100, 150 mM NaCl, 1 mM CaCl₂, and 1 mg/mL BSA. The assay was conducted at 25° C. Experimental kinetic results were fit to a 1:1 binding model.
(§2) However, if addition of the sandwich antibody produces a binding event, then the sandwich antibody binds to a different epitope on human TREM2 than the load antibody and the two antibodies are categorized into different epitope bins.

sandwich binding signal	Binder
0.4	B1
0.236	B2
0.362	B3
0.461	B4

target: T2, soluble human TREM2 protein (TREM2 …); assay: ELISA, hybridoma supernatant on captured biotinylated TREM2 ECD-Fc
Method: Exhausted hybridoma supernatants were tested for binding to human TREM2 by ELISA. Briefly, neutravidin plates were generated by incubating a 384 well Corning Assay Plate 3702 with neutravidin (Thermo 3100B) at 10 μg/mL (40 μL/well) in 1× PBS at 4° C. overnight. The plates were washed with 1× PBS using a Biotek plate washer and then blocked with 1% milk/1× PBS (90 μL/well) at room temperature (RT) for 30 minutes. The plates were then washed again with 1× PBS using the plate washer. […] The plates were then incubated at RT for 1 hour to immobilize the TREM2 protein to the wells of the plates. Following the incubation, the plates were again washed with 1× PBS using the plate washer. 10 μL of each hybridoma supernatant to be tested and 40 μL of 1% milk/1× PBS (1:5 dilution) were added to each well of the plates and incubated at RT for 1 hour. Again, the plates were washed with 1× PBS using the plate washer. […] After the plates were washed with 1× PBS using the plate washer, 40 μL/well of TMB substrate (Neogen, lot #150114) was added to the plates and the plates were incubated at RT for 30 minutes. The reaction was quenched with 1N hydrochloric acid (40 uL/well) following the incubation period. OD readings at 450 nm were obtained with a plate reader.

OD 450	Binder
0.59 OD450	B1
1.29 OD450	B2
1.16 OD450	B3
2.75 OD450	B4

target: T1, recombinant soluble human TREM2 protein …; assay: Octet BLI binning; competitor: load Ab 26A10
Method: as §1, §2

sandwich binding signal	Binder
0.028	B1
0.347	B2
-0.001	B3
0.596	B4

target: T1, recombinant soluble human TREM2 protein …; assay: Octet BLI binning; competitor: load Ab 4C5
Method: as §1, §2

sandwich binding signal	Binder
0.154	B2

target: T1, recombinant soluble human TREM2 protein …; assay: Octet BLI binning; competitor: load Ab 25F12
Method: as §1, §2

sandwich binding signal	Binder
0.399	B1
0.011	B2
0.343	B3
0.509	B4

target: T1, recombinant soluble human TREM2 protein …; assay: Octet BLI binning; competitor: load Ab 4G10
Method: as §1, §2

sandwich binding signal	Binder
0.142	B2

target: T1, recombinant soluble human TREM2 protein …; assay: Octet BLI binning; competitor: load Ab 24F4
Method: as §1, §2

sandwich binding signal	Binder
0.454	B1
0.18	B2
0.449	B3
0.585	B4

target: T1, recombinant soluble human TREM2 protein …; assay: Octet BLI binning; competitor: load Ab 24G6
Method: as §1, §2

sandwich binding signal	Binder
0.369	B1
0.284	B2
0.354	B3
-0.031	B4

target: T1, recombinant soluble human TREM2 protein …; assay: Octet BLI binning; competitor: load Ab 24A10
Method: as §1, §2

sandwich binding signal	Binder
0.423	B1
0.34	B2
0.454	B3
0.023	B4

target: T1, recombinant soluble human TREM2 protein …; assay: Octet BLI binning; competitor: load Ab 10E3
Method: as §1, §2

sandwich binding signal	Binder
0.28	B1
0.089	B2
0.259	B3
0.347	B4

target: T1, recombinant soluble human TREM2 protein …; assay: Octet BLI binning; competitor: load Ab 33B12
Method: as §1, §2

sandwich binding signal	Binder
0.007	B1
0.275	B2
-0.02	B3
0.439	B4

target: T1, recombinant soluble human TREM2 protein …; assay: Octet BLI binning; competitor: load Ab 26C10
Method: as §1, §2

sandwich binding signal	Binder
0.006	B1
0.327	B2
-0.033	B3
0.605	B4

target: T3, human TREM2 on cells; assay: cell-based or functional assay

Emax (% maximum activation compared to RnD antibody)	pSyk EC50, differentiated THP-1 cells	Binder
140%	0.418 nM	B1
122%	1.05 nM	B2

target: T1, recombinant soluble human TREM2 protein …; assay: Octet BLI binning; competitor: load Ab 26F2
Method: as §1, §2

sandwich binding signal	Binder
0.031	B1
0.33	B2
-0.016	B3
0.544	B4

target: T1, recombinant soluble human TREM2 protein …; assay: Octet BLI binning; competitor: load Ab 6E7
Method: as §1, §2

sandwich binding signal	Binder
0.504	B1
0.213	B2
0.491	B3
0.616	B4

target: T1, recombinant soluble human TREM2 protein …; assay: Octet BLI binning; competitor: load Ab 13E7
Method: as §1, §2

sandwich binding signal	Binder
0.312	B1
0.104	B2
0.272	B3
0.375	B4

target: T3, human TREM2 on cells; assay: cell-based or functional assay; remark: another data set of the same source

pSyk EC50	Binder
2.6 nM	B2
1.3 nM	B3
32.9 nM	B4

target: T1, recombinant soluble human TREM2 protein …; assay: Octet BLI binning; competitor: load Ab 5E3
Method: as §1, §2

sandwich binding signal	Binder
-0.004	B1
0.335	B2
-0.027	B3
0.53	B4

target: T1, recombinant soluble human TREM2 protein …; assay: Octet BLI binning; competitor: load Ab 16B8
Method: as §1, §2

sandwich binding signal	Binder
-0.009	B1
0.252	B2
-0.018	B3
0.481	B4
